Measurements from WO2020148554A1 (dated 2020).

T1: Sudan Gulu glycoprotein (NC_006432.1) expressed on MDCK-SIAT1 cells (Sudan Gulu (SUDV), UniProt Q7T9D9 33-676)
T1 sequence: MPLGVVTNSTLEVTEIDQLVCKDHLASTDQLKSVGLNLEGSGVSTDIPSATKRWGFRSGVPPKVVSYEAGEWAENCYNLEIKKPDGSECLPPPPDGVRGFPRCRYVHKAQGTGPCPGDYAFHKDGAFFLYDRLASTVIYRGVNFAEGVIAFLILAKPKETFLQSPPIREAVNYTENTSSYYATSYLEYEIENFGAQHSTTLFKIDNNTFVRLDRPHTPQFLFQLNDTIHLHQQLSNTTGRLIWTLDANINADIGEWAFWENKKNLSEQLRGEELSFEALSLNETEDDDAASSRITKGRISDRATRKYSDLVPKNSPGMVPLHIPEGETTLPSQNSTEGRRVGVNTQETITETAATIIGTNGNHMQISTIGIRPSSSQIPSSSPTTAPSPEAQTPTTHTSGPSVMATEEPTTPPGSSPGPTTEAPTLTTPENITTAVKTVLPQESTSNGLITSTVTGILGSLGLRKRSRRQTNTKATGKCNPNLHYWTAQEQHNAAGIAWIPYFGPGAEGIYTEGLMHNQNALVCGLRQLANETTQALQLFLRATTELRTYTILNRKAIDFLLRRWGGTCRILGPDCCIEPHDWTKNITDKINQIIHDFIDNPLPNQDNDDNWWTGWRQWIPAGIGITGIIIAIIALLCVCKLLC

B1: 66-3-9C (antibody, V domains shown)
VH: EVQLVESGGGLVKPGGSLRLSCAASGFTFSSYNMNWVRQAPGKGLEWVSSITTSSSYIYYAYSVKGRFTISRDNAKNSLYLQMNSLRAEDTAVYYCARFLGYSYGTNYYYYGMDVWGQGTTVTVSS
VL: not shown
B2: 040 (antibody, V domains shown)
VH: QVQLVESGGGFVQPGGSLRLSCAASGFTFSSYAMSWVRQAPGKGLEWVSTISGSGGTTYYADSVKGRFTISRDNSKNTLYLEMITLRAEDTATYFCANSYYYHSSGLLIRWDDMDVWGQGTTVTVSS
VL: DIQMTQSPSSLSASVGDRVTITCRASQGIRNDLGWYQQKPGKAPKRLIYAASSLQSGVPSRFSGSGSGTEFTLTISSLQPEDFATYYCLQHSSYPWTFGQGTKVEIKR
B3: 6662 (antibody, V domains shown)
VH: EVQLVESGGGLVKPGGSLRLSCAASGFGFSSAWMNWVRQAPGKGLEWVGRIKSKTDGGKTDYAAPVKGRFIMSRDDSKNTLYLQMNSLKTEDAGVYYCTTRIVLNGMDVWGQGTLVTVSS
VL: QSVLTQPPSVSGAPGQRVTISCTGSSSNIGAGYDVHWYQQLPGTAPKLLIYANNNRPSGVPDRFSGSKSGTSASLAITGLQAEDEADYYCQSYDSRLSDGVVFGGGTKLTVLG
B4: 6541 (antibody, V domains shown)
VH: EVQLVQWGAGLLKPSETLSLTCAVYGGSFSGNYWTWIRQPPGKGLEWIGEINHSGSTNYNPSLKSRVTISVDTSKNQFSLKLSSVTAADTAVYYCATKMGGYGDYWHWYFDLWGRGTMVTVSS
VL: EVVMTQSPATLSVSPGERATLSCRASQSLFTNLAWYQQKPGQAPRLLIYGASTRATGIPARFSGSGSGTDFSLTISRLQSEDFAFYYCQQYNDWPLTFGGGTKVDIKR

Target: T1, Sudan Gulu glycoprotein (NC_006432.1) …
Assay: indirect immunofluorescence by FACS on MDCK-SIAT1 cells expressing GP

Binder | binding result
B1 | binds
B2 | binds
B3 | binds
B4 | binds
